# Reference: article PMC7077851, “Comparative analysis of the human serine hydrolase OVCA2 to the model serine hydrolase homolog FSH1 from S. cerevisiae” (PLoS ONE, 2020)
# Changes are numbered by the printed parent chain. Names may count otherwise.
# B1: OVCA2 (Homo sapiens) (protein)
# chain: MAAQRPLRVLCLAGFRQSERGFREKTGALRKALRGRAELVCLSGPHPVPDPPGPEGARSDFGSCPPEEQPRGWWFSEQEADVFSALEEPAVCRGLEESLGMVAQALNRLGPFDGLLGFSQGAALAALVCALGQAGDPRFPLPRFILLVSGFCPRGIGFKESILQRPLSLPSLHVFGDTDKVIPSQESVQLASQFPGAITLTHSGGHFIPAAAPQRQAYLKFLDQFAE
# B2: OVCA2 (Homo sapiens; D179A) (protein)
# chain: B1 chain with D179A
# Experiments:
# Assay in all cases: purified protein
# Assay type in all cases: biochemical, Homo sapiens
# purified protein [1] = substrate: CCCCCCCCCC(=O)Oc1ccc([N+](=O)[O-])cc1; settings: PBS, 0.1 mg/mL acetylated BSA, 1% acetonitrile, 25 °C
# purified protein [2] = substrate: CCCC(=O)Oc1ccc([N+](=O)[O-])cc1; settings: PBS, 0.1 mg/mL acetylated BSA, 1% acetonitrile, 25 °C
# purified protein [3] = substrate: CC(=O)Oc1ccc([N+](=O)[O-])cc1; settings: PBS, 0.1 mg/mL acetylated BSA, 1% acetonitrile, 25 °C
# purified protein [4] = substrate: COCCOCC(=O)OCOc1ccc2c(c1)Oc1cc(OCOC(=O)COCCOC)ccc1C21OC(=O)c2ccccc21; settings: PBS, 0.1 mg/mL acetylated BSA, 25 °C
# purified protein [5] = substrate: CCCCCCCCCCCC(=O)Oc1ccc([N+](=O)[O-])cc1; settings: PBS, 0.1 mg/mL acetylated BSA, 1% acetonitrile, 25 °C
# purified protein [6] = substrate: COCC(=O)OCOc1ccc2c(c1)Oc1cc(OCOC(=O)COC)ccc1C21OC(=O)c2ccccc21; settings: PBS, 0.1 mg/mL acetylated BSA, 25 °C
# purified protein [7] = substrate: CCCCCCCCCCCCCC(=O)Oc1ccc([N+](=O)[O-])cc1; settings: PBS, 0.1 mg/mL acetylated BSA, 1% acetonitrile, 25 °C
# purified protein [8] = substrate: CCCCCCCC(=O)Oc1ccc([N+](=O)[O-])cc1; settings: PBS, 0.1 mg/mL acetylated BSA, 1% acetonitrile, 25 °C
protein,measurement,setting,value
B1,Km,purified protein [1],3.84 ± 1.1 µM
same,kcat,purified protein [1],0.025 ± 0.001 s⁻¹
same,kcat/Km,purified protein [1],6800 ± 1000 M⁻¹ s⁻¹
same,Km,purified protein [2],2900 ± 100 µM
same,Km,purified protein [3],1400 ± 600 µM
same,kcat,purified protein [3],0.26 ± 0.03 s⁻¹
same,kcat/Km,purified protein [3],200 ± 50 M⁻¹ s⁻¹
same,Km,purified protein [4],3.7 ± 0.8 µM
same,kcat,purified protein [4],0.0012 ± 0.0001 s⁻¹
same,kcat/Km,purified protein [4],330 ± 70 M⁻¹ s⁻¹
same,Km,purified protein [5],29 ± 19 µM
same,kcat,purified protein [5],0.076 ± 0.01 s⁻¹
same,kcat/Km,purified protein [5],2700 ± 950 M⁻¹ s⁻¹
same,Km,purified protein [6],12 ± 5 µM
same,kcat,purified protein [6],0.0013 ± 0.0002 s⁻¹
same,kcat/Km,purified protein [6],100 ± 40 M⁻¹ s⁻¹
same,Km,purified protein [7],17 ± 14 µM
same,kcat,purified protein [7],0.076 ± 0.01 s⁻¹
same,kcat/Km,purified protein [7],4500 ± 1800 M⁻¹ s⁻¹
same,Km,purified protein [8],6.1 ± 5.7 µM
same,kcat,purified protein [8],0.023 ± 0.005 s⁻¹
same,kcat/Km,purified protein [8],3800 ± 1800 M⁻¹ s⁻¹
B2,Km,purified protein [1],3.2 ± 1.5 µM
same,kcat,purified protein [1],3.7e-05 ± 4e-06 s⁻¹
same,kcat/Km,purified protein [1],11 ± 3 M⁻¹ s⁻¹
same,Km,purified protein [5],1.1 ± 0.6 µM
same,kcat,purified protein [5],7.3e-05 ± 8e-06 s⁻¹
same,kcat/Km,purified protein [5],69 ± 20 M⁻¹ s⁻¹
same,Km,purified protein [7],5.7 ± 1.9 µM
same,kcat,purified protein [7],4.6e-05 ± 4e-06 s⁻¹
same,kcat/Km,purified protein [7],7.8 ± 1.4 M⁻¹ s⁻¹
same,Km,purified protein [8],2.0 ± 0.2 µM
same,kcat/Km,purified protein [8],0.5 ± 0.3 M⁻¹ s⁻¹
